Three molecules from paper PMC3253120 (PLoS ONE, 2012) can be followed below.

The labels stand for the following.
B1: ciA-H11 (VHH)
VHH: QVQLVESGGGLVQPGGSLRLSCTASTLTLNYYAIGWFRQAPGKEREGVSCTGSSGGSTVYIDSVKGRFTVVRDNAKNMVYLQMDSLQPEDTAVYYCAADDLRCGRGWSSYFRGSWGQGTQVTVSS
notes: also called JEC-11; source: E. coli, purified as a thioredoxin fusion protein
B2: ciA-D1 (VHH)
VHH: QVQLVESGGGLVQPGGSLRLSCATSGFTLEYYAIGWFRQAPGKGREGVACMNSSGGGTNYADSVKGRFTISRDNAKKMVYLQMNSLKSEDTAVYYCVVDDFRCGSRWAAYLRSSWGQGTQVTVSS
notes: also called JDT-2; source: E. coli, purified as a thioredoxin fusion protein
B3: ciA-H4 (VHH)
VHH: SGGGLVQSGGSLRLSCAASVLTLEYYAIGWFRQAPGKEREGISCTGSSGGSTVYIDSVKGRFTVVRDNAKNMVYLQMDSLQPEDTAVYYCAADDLRCGRGWSSYFRGSWGQGTQVTVSS
notes: also called JEC-3; source: E. coli, purified as a thioredoxin fusion protein

The test deals with purified recombinant BoNT/A light chain (Lc) (Clostridium botulinum). The test is described as follows: ELISA. Conditions: both partners purified.
For B1, the binding result was “binds”.
Regarding B2, the binding result is “binds”.
As for B3, the binding result was “binds”.
